Test [1] concerns the target T1, biotinylated human recombinant CD4 (Repligen Inc.) (human, UniProt P01730 26-394, limits assumed, biotinylated (sites not given)).
T1 construct: Probe of the Spot membranes, used at 1 µg/ml; also called biotinylated CD4; CD4 probe
Description: Spot peptides on cellulose membrane probed with biotinylated CD4. Here is the method:
(§1) The antigenic reactivity of the peptides bound to the cellulose membrane was tested with biotinylated CD4 (1 μg/ml) under conditions that led to the production of a blue precipitate for the reactive spots as described in [Bès, 2001b].

Test [2] addresses T2, membranous CD4 (wild human CD4 expressed on cells) (human, UniProt P01730 26-458).
T2 construct: whole, on cells; also called T A2.01/CD4 cells; T AN2.01/CD4 cells
Description: flow cytometry, T A2.01/CD4 cells, Fab at 1 µg/ml, fluorescein-labeled anti-kappa chain antibody. The method, then: (§2) The binding of the wild or mutant Fabs to the membranous CD4 was evaluated by flow cytometry.
(§3) In order to determine the binding of the fragments to the membranous CD4, T AN2.01 CD4+ cells were analyzed by indirect immunofluorescent labeling and flow cytometry (FIG. 4).
(Flow cytometry measures light scatter and fluorescence of single cells or particles in a stream.)

Test [3] addresses T2, membranous CD4 (wild human CD4 …). The experiment in a line: flow cytometry, T A2.01/CD4 cells, Fab at 10 µg/ml, fluorescein-labeled anti-kappa chain antibody. The method, then:
as §2, §3

The target in test [4] is T3, soluble human recombinant CD4 expressed in baculovirus (human, UniProt P01730 26-396, limits assumed).
T3 construct: Coated on plates for the ELISA and covalently immobilised on the sensor for BIAcore; Only called soluble; also called soluble CD4; CD4 expressed in the baculovirus
The experiment in a line: SPR (BIAcore), CD4 immobilised, Exp. 3. The method, then: (§4) The kinetic parameters of the binding of CD4 to the paratope of the Fab fragments of the 13B8.2 antibody were determined by analysis of the surface plasmon resonance by means of a BIAcore analyzer (BIAcore AB, Uppsala, Sweden).
On the technique in general: Surface plasmon resonance follows binding to a sensor surface in real time, without labels.

Test [5] concerns the target T3, soluble human recombinant CD4 expressed …. Description: SPR (BIAcore), CD4 immobilised, Exp. 2. The method, then: as §4
For test [6] the target is unchanged. Description: SPR (BIAcore), CD4 immobilised, Exp. 1. Here is the method:
as §4

Test [7] shares this target. Description: ELISA on coated baculovirus-expressed soluble CD4, anti-human kappa-peroxidase, A490 [panel Mutants CDR-H 13B8.2]. The method, then: A 1:500 dilution of the CD4 fraction expressed by the baculovirus in 0.1 M carbonate/bicarbonate buffer, pH 9.6, was incubated overnight at 4° C. on 96-well enzymatic immunoanalysis plates (Nunc, Paisley, UK). Four washings with the phosphate saline buffer (PBS) 160 mM pH 7.2, containing 0.1% Tween 20 (PBD-T), were performed before and after the saturation of the microplates, with powdered skim milk at a concentration of 1% in the PBS-T for one hour at 37° C.
In general terms: An ELISA detects its analyte on a solid surface through an enzyme-linked reagent.

The target is the same in test [8]. The experiment in a line: SPR (BIAcore), CD4 immobilised, Exp. 2; Exp. 2. Here is the method:
as §4

Test [9] has as its target T1, biotinylated human recombinant CD4 …. Description: Spot peptide on cellulose probed with biotinylated CD4. The method, then: as §1

Experimental findings from patent publication US20050226874A1 (CENTRE NATIONAL DE LA RECHERCHE SCIENTIFIQUE CNRS A …, published 2005) are described below.

B1: alanine analogue of peptide 52WRSGIT57 with Arg53 replaced by Ala (dotted bar R53) (peptide)
peptide: WASGIT
notes: also called WASGIT
As for B1, in test [1], the binding result is recorded as “no binding”.

B2: wild recombinant chimeric Fab fragment of the 13B8.2 anti-CD4 antibody (Fab, V domains shown)
VH: QVQLKQSGPGLVQPSQSLSITCTVSGFSLTTFGVHWVRQSPGKGLEWLGVIWRSGITDYNVPFMSRLSITKDNSKSQVFFKLNSLQPDDTAIYYCAKNDPGTGFAYWGQGTLVTVSA
VL: DIQMTQSPASLSASVGETVTFTCRASENIYSYLAWYQQKQGKSPQLLVHDAKTLAEGVPSRFSGGGSGTQFSLKINTLQPEDFGTYYCQHHYGNPPTFGGGTKLEIK
notes: Chimeric Fab: murine V domains fused to human CH1-γ1 (Fdγ1) and human Cκ, expressed in baculovirus/Sf9 cells, purified on protein G; also called Fabwild 13B8.2; wild Fab
As a reminder, the Kd is the concentration at which binding is half-saturated. The term koff denotes a measure of how fast the partners let go of each other. One may read the kon as the rate constant with which the complex forms. As to B2, the “percent of cells under the marker bar of the histogram” value in test [2] stood at 44.7%; in test [3], 84.8%. Besides, the Kd in [4] is 25.6 nM; in test [5], 33.5 nM; in test [6] it was 28.4 nM. For the same molecule, the koff stood at 6.4e-05 s⁻¹ in test [4], 0.000161 s⁻¹ in [5] and 0.000108 s⁻¹ in test [6]. Also, the kon in [4] came to 2500 M⁻¹ s⁻¹; in test [5], 4800 M⁻¹ s⁻¹; in test [6] it was 3800 M⁻¹ s⁻¹.

B3: mutant Fab Y102-H of the 13B8.2 antibody (Fab, V domains shown)
VH: QVQLKQSGPGLVQPSQSLSITCTVSGFSLTTFGVHWVRQSPGKGLEWLGVIWRSGITDYNVPFMSRLSITKDNSKSQVFFKLNSLQPDDTAIYYCAKNDPGTGFAAWGQGTLVTVSA
VL: DIQMTQSPASLSASVGETVTFTCRASENIYSYLAWYQQKQGKSPQLLVHDAKTLAEGVPSRFSGGGSGTQFSLKINTLQPEDFGTYYCQHHYGNPPTFGGGTKLEIK
notes: Chimeric Fab with human CH1-γ1 and Cκ; baculovirus/Sf9
As to B3, the binding result in [7] is reported as “binds”.

B4: mutant Fab Y36-L of the 13B8.2 antibody (Fab, V domains shown)
VH: QVQLKQSGPGLVQPSQSLSITCTVSGFSLTTFGVHWVRQSPGKGLEWLGVIWRSGITDYNVPFMSRLSITKDNSKSQVFFKLNSLQPDDTAIYYCAKNDPGTGFAYWGQGTLVTVSA
VL: DIQMTQSPASLSASVGETVTFTCRASENIYSYLAWAQQKQGKSPQLLVHDAKTLAEGVPSRFSGGGSGTQFSLKINTLQPEDFGTYYCQHHYGNPPTFGGGTKLEIK
notes: as for B3
For the molecule B4, the “percent of cells under the marker bar of the histogram” value in [2] turned out to be 44.6%. Moreover, in test [8], the Kd is 11.4 nM, the koff was determined as 0.00057 s⁻¹ and the kon was 50000 M⁻¹ s⁻¹. Also, in [6], the Kd was determined as 25.4 nM, the koff is 0.000651 s⁻¹ and the kon amounted to 25600 M⁻¹ s⁻¹.

B5: alanine analogue of peptide 49GVIWRS54 with Arg53 replaced by Ala (peptide)
peptide: GVIWAS
notes: Spot peptide on cellulose membrane; also called GVIWAS
Take B5: the binding result in [9] is recorded as “no binding”.

B6: alanine analogue of peptide 49GVIWRS54 with Val50 replaced by Ala (peptide)
peptide: GAIWRS
notes: Spot peptide on cellulose membrane; also called GAIWRS
As to B6, the binding result in test [1] is listed as “binds”.

B7: alanine analogue of peptide 49GVIWRS54 with Ser54 replaced by Ala (peptide)
peptide: GVIWRA
notes: Spot peptide on cellulose membrane; also called GVIWRA
As for B7, the binding result in test [9] is listed as “binds”.
